# Source: publication PMC10569748
# Where “and” joins values, the source holds several entries; their conditions need not be identical. Equal entries are not always repeated.
# Tests used:
# His = assay: kinetics; settings: free enzyme; cited from earlier work
# Cys = assay: kinetics; settings: free enzyme; cited from earlier work
# His162 [1] = molecular target: T1, His162 (UniProt position 284, SEQLDHGVLLV); assay: kinetics; settings: free enzyme (kcat/Km profile)
# Cys25 [2] = molecular target: T2, Cys25 (UniProt position 147, GQCGSCWAFSA); assay: kinetics; settings: 25 °C; 0.1 (constant); free enzyme (kcat/Km profile)
# Cys25 [3] = molecular target: T2, Cys25; assay: chemical modification; settings: 25 °C (general statement for all assays); ligand-free enzyme
# His162 [4] = molecular target: T1, His162; assay: NMR; settings: Cys25 covalently modified by K11777; cited from earlier work
# His159 = His159 (UniProt position 292, GNKVDHAVAAV); assay: chemical modification; settings: free enzyme; cited from earlier work
# Cys25 [5] = molecular target: Cys25 (UniProt position 158, GSCGSCWAFSA); assay: chemical modification; settings: free enzyme; cited from earlier work
# [6] = tested on: Cc1cc(=O)oc2cc(NC(=O)[C@H](C)NC(=O)[C@H](CCCNC(=N)N)NC(=O)OCc3ccccc3)ccc12; assay: purified protein; settings: pH 7.5, 25 °C, 2% DMSO, 5 mM DTT, 1 mM CHAPS, 1 mM EDTA
# [7] = tested on: Cc1cc(=O)oc2cc(NC(=O)[C@H](CCCNC(=N)N)NC(=O)[C@H](CCCNC(=N)N)NC(=O)OCc3ccccc3)ccc12; assay: purified protein; settings: pH 7.5, 25 °C, 2% DMSO, 5 mM DTT, 1 mM CHAPS, 1 mM EDTA
# [8] = tested on: Cc1cc(=O)oc2cc(NC(=O)[C@H](CCCNC(=N)N)NC(=O)[C@H](Cc3ccccc3)NC(=O)OCc3ccccc3)ccc12; assay: purified protein; settings: pH 7.5, 25 °C, 2% DMSO, 5 mM DTT, 1 mM CHAPS, 1 mM EDTA
substance,measurement,setting,value
Cathepsin C (dipeptidyl peptidase I) (Homo sapiens),pKa,His,6.5
same,pKa,Cys,4.3
Cruzain (cruzipain catalytic domain) (Trypanosoma cruzi),pKa,"His162 [1]; 25 °C, 0.1 (constant), sticky substrate",6.2 ± 0.4 and 6.0 ± 0.1
same,pKa,His162 [1]; 25 °C,6.2 ± 0.1
same,pKa,His162 [1]; 40 °C,5.9 ± 0.1
same,pKa,Cys25 [2],9.6 ± 0.1
same,pKa,Cys25 [3],9.76 ± 0.04
Cruzain covalently complexed with K11777 (Trypanosoma cruzi),pKa,His162 [4],5.2–5.3
Papain (Carica papaya),pKa,His159,8.4
same,pKa,Cys25 [5],4.0
cruzain (Trypanosoma cruzi),Km,[6],38 ± 2 µM
same,kcat,[6],0.89 ± 0.06 s⁻¹
same,kcat/Km,[6],23000 ± 3000 M⁻¹ s⁻¹
same,Km,[7],3.7 ± 0.4 µM
same,kcat,[7],7.2 ± 0.1 s⁻¹
same,kcat/Km,[7],1.9e+06 ± 200000 M⁻¹ s⁻¹
same,Km,[8],0.62 ± 0.02 µM
same,kcat,[8],17 ± 2 s⁻¹
same,kcat/Km,[8],2.7e+07 ± 4e+06 M⁻¹ s⁻¹
